Reference: publication PMC12669751, “Immunodominant antibodies against hemagglutinin in ferrets following infection with 2018 to 2019 influenza vaccine strains” (NPJ Vaccines, 2025)

Biological target: TX/50 cell-version rHA1 (A/Texas/50/2012(H3N2) HA1) (Influenza A virus …, UniProt R4L1D1, strain)
Assay: BLI
Conditions: one partner purified

B1: monoclonal antibody FluA-20 (antibody, V domains shown)
VH: QVQLEESGPGLVKPSETLSLTCSVSGVSVTSDIYYWTWIRQPPGKGLEWIGYIFYNGDTNYNPSLKSRVTMSIDTSKNEFSLRLTSVTAADTAVYFCARGTEDLGYCSSGSCPNHWGQGTLVTVSS
VL: DIVMTQSPSSLSASIGDRVTITCRPSQNIRSFLNWFQHKPGKAPKLLIYAASNLQSGVPSRFSGSGSGTEFTLTIRSLQPEDFATYYCQQSYNTPPTFGQGTKVEIK
notes: also called FluA-20 mAb; pan-H3 anti-HA1 mAb; copies: 2 + 2
binding result: binds
